The values that follow come from the supplement of paper PMC11502859.
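Also: lentiviral eGFP-IRES-mCherry reporter pool sorted by FACS 96 h post-transduction, gated on mCherry-high cells, Illumina read counts normalized per million, median across four biological replicates.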

The data set concerns HEK293T. In words: median enrichment of reporter reads in eGFP-reduced (low/intermediate) vs eGFP-high sorted cells (eGFP-extension fusion abundance) (ratio); higher = stronger loss of eGFP-fusion protein abundance (more destabilising extension).
As for “GGTPEKMPGLIVPPQDMDSMWGQEGYLLPGKAISSSPVWGGMRPAPLVNTPFPRSSLPVLGGS [CIC]”, the median enrichment is 6.48. For “LGSVPGWPVPITSYAHLPPPVFPPLDWWPLPWGRSPHVPAPGDRQRRQQAAFVAQQGALPSLLPSCFS [CST3]”, the median enrichment worked out at 4.44.

In the case of YRA [SYNE2], the median enrichment was found to be 0.591.

Take “SVGQATPPSSSCLRRSHSIHWNRSWVSLCSCLSFPRDPTPLWGSGTLHCTGSLHTGRGTCAPTSETCRSPQLTCPTGAQHCTQ [MAP3K11]”: the median enrichment amounted to 5.17. Consider “SVHQLPAPALAPTPSSLKHPPAHCGQLCATRAHGAPPVL [BAIAP3]”, for which the median enrichment stood at 1.3. In the case of “GHPQDTPMWLLDNPRAAKSCFSSLAPQVLQDRALKATPNEFSGFRLWLQPNRTHFEHPDCIFAFRKLE [C5orf46]” it was 3.29; in that of WKDN [PIK3CA], 0.482; in that of “LGRLCPLPASLLCFPSPVSSLPSRPRHLPSVPWLSRTFYPTVRPQRGQDKPCPDAFDRQLCVLVDRCRNKEEMESAPEKLQIQ [H6PD]”, 6.07. The value for “RAGVCWHRQPPLWALGGPLKGSPTRGPDESFLSGVGSQRGSPPAAWGRAWPGRVIQRVCQPLTGSPSVAATRSTELLQPRGQL [FAM53B]” was 6.39; that for QTGQDPSTCTC [FCN1] was 0.258; that for KKPPAQLETC [METTL16] was 0.455. The value for KITF [SNCAIP] was 0.77; that for RRTHRQ [ZNF397] was 1.02; that for SRPHTPALTQLLLGT [GRM2] was 5.49. In the case of “SGVLSSHFCVTCHFLPLVPCRFGMKMVSFAVFNLFFIMVEYSSRSFVLVYEENLHIFFVFQ [CHIC1]”, the median enrichment was 9.4. On to “RFHRSAFGHLLWWVLVTHFRLRFDGLNLYSLESMSCVYSTIRNLILFLLLFLQKQKLILKSIIMGWGGGCPQDMQDFCRGQHR [SETD4]”, for which the median enrichment is 8.11. On to “KSIIILQHLRVWQLFVWAFAHAMPSLPSPTPTRGDS [SPATA12]”, for which the median enrichment was 8.97. In the case of YYHMFSWYVN [ABHD10], the median enrichment was 17.6. In the case of “YYVIRNLVAWPYLAAREPGRYVAGRLGMCPVKNSVDSLIKKKRKKDTMGTLYLVFILCMYRSSKKLHRISVTLYASGKQDWEL [CFAP61]” it was 41.5; in that of KGN [CYTL1], 0.283; in that of “AEWPGTCLKCLFPISLRDQEGILGMPLTSLLSRQQKWRGSQESALNCPPGWQGSLNRYLELGSGLFPCVLTTRASCSRAGIRG [F11R]”, 9.01.

Consider LGGVWGHPS [ZG16B], for which the median enrichment stood at 2.14.

For the substance “PTASSLQVQLKPLSSGGRHVERAGRPTAAENRAGTGSSCSAFPSFGDAGSAAPKHLPAPHSTVSEDSSLLPVKLPCAGMAWTC [CDC14B]”, the median enrichment came to 2.89.

Turning to SKHLKC [FAN1], the median enrichment was determined as 0.578. As for CESVHQTKCGKNTKKT [GYPA], the median enrichment was found to be 0.413. In the case of LRPGHPDVLLKGAPRAGRGL [CBLC] it was 1.91. Regarding YTQKTNSIQSQ [ENDOD1], the median enrichment was 1.93. In the case of KFRSPHFSAPRMVLFIFHHL [SLC43A3] it was 9.56; in that of QRLQCLLRRKIKFTSSKVTLEDRALGMSFFF [OR2C3], 5.9; in that of SGLLLY [MRPL20], 1.83. The value for GCVLSQIYLLD [HYPK] was 11.9; that for SQL [AMBN] was 0.898; that for “REQQMELWERGEQWGYRESSSALPLGQPHLPAVSPGHFSTSQVEVLQGPAATCIRRTSFSA [SPATA19]” was 4.52. Regarding WSQLTSLSRKVYP [CD9], the median enrichment worked out at 1.91.

For WAGLRGMVRTSPP [NANS], the median enrichment was 6.83. The value for RGWDPLLKLVASAGLGAAPQRLQLIC [FES] was 32.6; that for REFYRDAEKKERSEAIYAYGSRKR [CHCHD7] was 7.02. In the case of YPLRDSRCYLSSVPHFL [SYT9] it was 12; in that of “RKCQEWKIFLILVQHEVVFRSLLSLIAILRFVGFYERLLLSGLKSFLNVCFLRSVIQLCEYFVTDLFQWLLV [HINT3]”, 11.3; in that of TTT [Thr03], 0.568. As for EVGQPLMSWFLQLSFPLGCIEGFS [RAG1], the median enrichment turned out to be 6.39. As for LLLLL [Leu05], the median enrichment was determined as 4.74. Regarding CGSRPGRPFARRRGMGERT [ARHGEF1], the median enrichment came out at 7.51.

For the substance “RCLPRAVDARAPVHTHTSTLTSPQCCASSTRFYSSQNCILNAQETFKLFMKRCVYREEEGANAVRIMFRL [UBE2QL1]”, the median enrichment was determined as 11.9. The value for “CGILRWLACWAWGLLTDSMEQGWAVCAHAQHALRGGGGGRGFLMSVQELKVSGVLPRICPTPHDKTELCNKQYQFILAVGFCF [WDR6]” was 9.47; that for “LARAPSGGITDLMTTLALLPCRVQVLSPHFHLPAPRGPFPFMGLPPSDAQEGSSAMTGLLPLTSREHPLDLGRWWSQGWAAYF [PCDH1]” was 6.44; that for “CASALEETTGSPICLEFLLLLLLVCFQISLCFLLCSRKVLQNHREKVHCYKGIPTHWRL [PAQR9]” was 25.9. In the case of LRLSISRDMVLTQQFPVMAKCSI [IL13RA2] it was 41.5. With “LVWGPCQPAAPKPAPLPKQPRPLPLNPGPGRPGRPPVTAAAPALCRAALTCLPSQPLTSRLSLGQREPFGGAACLLWFWEG [FLNA]”, the median enrichment worked out at 3.92. As for YCRREVSSLCLVCNSSWA [REG3A], the median enrichment was 7.13. The value for “SAPYWPAGPPPPAAGQLPNGPFQGLTLHPFSVDFLARAPSGGITDLMTTLALLPCRVQVLSPHFHLPAPRGPFPFMGLPPSDA [PCDH1]” was 3.42. Consider “RPGAQPCAAEDSRDWRRPRPATAGARGHLPGLLTLSPHWEWAPRGRASAVAASAPGRAGPPRGPVLVFCRRTQPPPIPDSSLG [TMUB1]”, for which the median enrichment came to 6.53. In the case of QELVGSLRTPVLLTPSF [TSNAXIP1] it was 2.24.

In the case of WCSYLFFSSLS [LAMTOR5], the median enrichment was 13.3. Regarding “SEVRACAMCETGKLGAQFEFFLFFFFLSTKNTLMVNTGQNQERMCSFQGLGQNL [GAB3]”, the median enrichment was 7.14. As for WGSCSGGRV [ZNF330], the median enrichment stood at 0.598.

TMNNEEDLLRSL [Degron FEM1C]: the median enrichment amounted to 0.347. Turning to RDSSP [CD1C], the median enrichment came to 0.413. In the case of CEA [NPSR1] it was 10.3; in that of WAV [GBA2], 0.997; in that of QDLSIF [KCNJ13], 0.364. As to “SRHIQVSFHHFIYKGDQCHRRVPEEMRSQGLS [MPV17L]”, the median enrichment worked out at 4.12.

For YGIRLSCFKNVRESHILLMANCYINGNT [CBWD1], the median enrichment was 1.39. The value for LAGVFVPVSLILSRH [KCNS3] was 5.72; that for LGQAAPVLGEGG [DEPDC5] was 1.71; that for “WKTCSLSILPMKIHFTHPPPLLFCHVFPSLCIARFEVTDTHPKPCCSQSPILHILMGK [SYNJ2BP]” was 7.06. With WLHNPVYAFCTKKK [ZSCAN5A], the median enrichment came out at 8.24.

With YIPVSIQKSNKKFSVKCAILLCVL [RPL11], the median enrichment was 0.764.

Regarding “YEISLPGWEERKWGCPGETRNLPSPGWGQGLC [HOXB13]”, the median enrichment amounted to 3.71. The value for WEDPPEE [IGF1] was 1.04.

SGTAVPACSPHLGRGSLAAFSLRSRST [AGAP1]: the median enrichment was determined as 8.94. As to GSSC [KRTAP13-1], the median enrichment is 0.297.

As to “CPSGPPLPLGQGNQLLRDFSCLEGAVIAPPHCPTVLLGL [FBXW4]”, the median enrichment amounted to 12.6. In the case of “SDDILSPCVAFYLRFPRPAMFSSSPFSLYKNSFSRKTLISIVYMSLWLRH [ACTR3C]” it was 17.1. In the case of “SGLWPGTRSHLAGRWLLPQFSLENPQLSTHPLPQNQFQ [RBM42]” it was 9.36. As for SVPLSHPYL [KLK2], the median enrichment came out at 0.37. The value for AAAAAA [Ala06] was 8.25; that for “SAHAARRQGGLRRGPHSTRVCFCAAVQTVATALTERDSRAFILKEMFFPRGLLKE [GATA6]” was 4.62. With ETLNILSLIFN [POLK], the median enrichment was determined as 8.07. For “ASVLLRGAVCGEGLSWQGKHLRVTLTLGPLLFLKRLLATGKKNDLATLEETSAKEDVLASLSYFCSVVDLHIVVYLVWKCVSK [POLR1D]”, the median enrichment was found to be 7.42. In the case of WSTPAWYRHTQGLPCLHSPA [PDZD3] it was 5.04; in that of KMF [EFCAB2], 0.649; in that of WQHFCILKKCNLFLITALKL [UBQLN1], 12.2. In the case of “PGLTALRSARRARAETRVGCGELKEPIKSCSSTQNEPCSRHLPMLRDAWSVLGARPGAAACPTPPEEADPDRYLTTFFFFFFF [UQCC3]” it was 5.28; in that of LEPAAPASHLCLERTSAACQF [ECHS1], 0.709. Take “PGCLPCLPRPALVAPTALTVNPEAGSPANLWAESGESWWMRLRRRQEHLETGASWTGTLPLPGHRSSGGSNLRLNTRHPCSQK [TMEM91]”: the median enrichment came out at 3.37. In the case of CSFQRNMVSGQKDC [ZNF831] it was 0.731; in that of SISL [NPAS4], 0.469. Turning to “TLTMPRPHPVQHSQSSHLHPRTVGAGRHFPLEHVLRSITLGPTARLSLPPGSCMRSPDQLDHHFAQPLNTMHQASISQFPLAF [SCARA5]”, the median enrichment was 3.72. Take LTYLGRLGK [APBB3]: the median enrichment is 9.37. Take YFNLCNLTNFHDK [NUP107]: the median enrichment amounted to 9.37.

As to “LAVGAHHLPDSQRENNLAKPIFDTGTFSSQFSLFSQKMI [C1orf105]”, the median enrichment stood at 12.7. As for SFHLLKPAYFRTLRLTVFSLLMMSSC [PIK3AP1], the median enrichment was determined as 11.1. The value for QQQQQQQQ [Gln08] was 0.342; that for WVLIPTFPCDLGCRCSCCKMEANLTGVL [ADD2] was 6.13. In the case of WPMLNTHV [NABP1] it was 0.435. In the case of “RWTSLFPGPRTLQEMETVQRAVWSHNLNRFSGAPSLLPSLQ [RPRD1A]” it was 6.53.
